Measured values published in patent US8716437B2 (priority 2007, dated 2014).
Residue numbers refer to the chain shown, from its start. Where “and” joins values, the source holds several entries; their conditions need not be identical. Identical values can stand only once. Where no end group is shown, it is not given here.

What was measured:
[1] = molecular target: KcsA carrying a segment of the Kv1.3 pore loop (KcsA-1.3)
[2] = molecular target: KcsA carrying a segment of the Kv1.3 pore loop (KcsA-1.3); assay: library panning on immobilised KcsA-1.3
[3] = molecular target: Kv1.3 K+ channel, wild-type, species not stated
[4] = molecular target: Kv1.2 K+ channel, species not stated
[5] = molecular target: Kv1.3 K+ channel, wild-type, species not stated; remark: listed apart in the source
[6] = molecular target: BK channel, species not stated
[7] = molecular target: Kv1.1 K+ channel, species not stated
[8] = molecular target: KcsA carrying a segment of the Kv1.3 pore loop (KcsA-1.3); remark: listed apart in the source
[9] = molecular target: KcsA carrying a segment of the Kv1.3 pore loop (KcsA-1.3); assay: panning of a 1:99 mixture of Shk and Camel VHH phages on KcsA-1.3, n = 17-20
[10] = molecular target: Kv1.3 K+ channel, wild-type, species not stated; remark: listed apart in the source
[11] = molecular target: KcsA carrying a segment of the Kv1.3 pore loop (KcsA-1.3); remark: listed apart in the source
[12] = molecular target: Kv1.3 K+ channel, wild-type, species not stated; remark: listed apart in the source
[13] = molecular target: Kv1.3 K+ channel, wild-type, species not stated; assay: one round of panning of KTX and nonspecific phages on cells expressing Kv1.3
[14] = molecular target: Kv1.3 K+ channel, wild-type, species not stated; remark: listed apart in the source
[15] = molecular target: Kv1.3 K+ channel, wild-type, species not stated; assay: phage panning on COS cells
[16] = molecular target: Kv1.3 K+ channel, wild-type, species not stated; assay: phage panning on HEK cells
human Kv1.3 (Homo) [17] = molecular target: human Kv1.3 (Homo) (UniProt P22001)
Rattus Kv1.1 (Rattus) = Rattus Kv1.1 (Rattus) (UniProt P10499)
[18] = molecular target: Mus BK (mouse big conductance calcium-activated K channel) (Mus) (UniProt Q08460)
Rattus Kv1.2 (Rattus) = Rattus Kv1.2 (Rattus) (UniProt P63142)
human Kv1.3 (Homo) [19] = molecular target: human Kv1.3 (Homo) (UniProt P22001); remark: listed apart in the source
Kv1.1 = molecular target: T1, Kv1.1 (Rattus norvegicus, UniProt P10499); assay: Two electrode voltage clamp, Xenopus oocytes, Kv1.1; format: cell-based
T1 construct: expressed in transfected cells; host or cells: Xenopus laevis oocytes (cRNA injection)
T1 sequence (P10499 whole entry): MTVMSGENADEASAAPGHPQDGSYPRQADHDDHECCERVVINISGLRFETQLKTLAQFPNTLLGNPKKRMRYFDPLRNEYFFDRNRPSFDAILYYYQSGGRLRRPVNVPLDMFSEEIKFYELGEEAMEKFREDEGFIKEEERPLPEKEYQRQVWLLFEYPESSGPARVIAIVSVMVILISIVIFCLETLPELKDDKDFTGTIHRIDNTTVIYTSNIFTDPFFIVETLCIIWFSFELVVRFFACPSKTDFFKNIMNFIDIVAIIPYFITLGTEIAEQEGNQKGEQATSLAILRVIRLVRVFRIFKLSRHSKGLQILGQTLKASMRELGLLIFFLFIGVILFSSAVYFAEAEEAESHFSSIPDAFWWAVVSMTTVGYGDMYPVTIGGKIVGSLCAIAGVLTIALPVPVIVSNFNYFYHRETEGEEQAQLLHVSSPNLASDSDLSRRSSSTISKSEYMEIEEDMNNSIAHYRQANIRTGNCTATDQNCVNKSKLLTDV
Description: (§1) To examine the effect of mokatoxin-1 on activity of potassium ion channels, cDNA encoding Rattus Kv1.1 (NCBI accession number NM_173095), Rattus Kv1.2 (NM_012970), Homo Kv1.3 (NM_002232), or Mus BK (NM_010610) were subcloned into oocyte expression vectors based on PCR3.1 and pGEM. cRNA synthesis was performed with T7 polymerase and the mMessageMachine Kit (Ambion, Austin, Tex.) according to manufacturers instructions. cRNA concentrations were determined spectroscopically. For two electrode voltage clamp recordings oocytes were extracted from Xenopus laevis and defoliculated with Collagenase Type 2 (Worthington, Lakewood, N.J.). Oocytes were maintained in ND91 solution containing 2 mM KCl, 91 mM NaCl, 1 mM MgCl2, 1.8 mM CaCl2, and 5 mM HEPES, pH 7.5, supplemented with 1% Penicillin/Streptomycin (Cellgro, Hemdon, Va.) and 0.1% Gentamycin sulfate (Gibco, Grand Island, N.Y.)) at 16° C. Stage V and VI oocytes were injected with 8 pg to 4 ng cRNA, and currents recorded 1 to 4 days later.
(§2) For dose-response measurements of toxin block of Kv1.1, Kv1,2, or Kv1.3 peak currents were recorded during a 500 ms step to 0 mV from a holding voltage of −100 mV, followed by a 200 ms step to −135 mV every 30 s. To determine the kinetics of toxin block oocytes were held at −100 mV and stepped to the test voltage of 0 mV for 100 ms followed by a 200 ms duration step to −135 mV every 2 s. BK currents were recorded during a 50 ms step to +60 mV from a holding voltage of −80 mV, followed by a 40 ms step to −100 mV every 3 s. The perfusion solution contained 2 mM KCl, 96 mM NaCl, 1 mM MgCl2, 1.8 mM CaCl2, 5 mM HEPES, pH 7.5 and 0.1% fatty acid ultra-free BSA fraction V (Roche Diagnostics Corporation, Indianapolis, Ind.). Data acquisition and processing was performed with an oocyte clamp OC-725B (Warner Instruments Corporation, Hamden, Conn.), pCLAMP (Axon, Sunnyvale, Calif.), IGOR Pro (WaveMetrics, Lake Oswego, Oreg.), and Origin6.1 (OriginLab Corporation, Northampton, Mass.) softwares. The equilibrium dissociation rates (KD) for block of Kv1.1, Kv1.2, and Kv1.3 by mokatoxin-1 were determined by fitting the dose-response data and kon and koff were calculated as described by Goldstein and Miller, 1993 (Biophys J. 1993 65 (4):1613-1619).

Kv1.2 = molecular target: T2, Kv1.2 (Rattus norvegicus, UniProt P63142); assay: Two electrode voltage clamp, Xenopus oocytes, Kv1.2; format: cell-based
T2 construct: expressed in transfected cells; host or cells: Xenopus laevis oocytes (cRNA injection)
T2 sequence (P63142 whole entry): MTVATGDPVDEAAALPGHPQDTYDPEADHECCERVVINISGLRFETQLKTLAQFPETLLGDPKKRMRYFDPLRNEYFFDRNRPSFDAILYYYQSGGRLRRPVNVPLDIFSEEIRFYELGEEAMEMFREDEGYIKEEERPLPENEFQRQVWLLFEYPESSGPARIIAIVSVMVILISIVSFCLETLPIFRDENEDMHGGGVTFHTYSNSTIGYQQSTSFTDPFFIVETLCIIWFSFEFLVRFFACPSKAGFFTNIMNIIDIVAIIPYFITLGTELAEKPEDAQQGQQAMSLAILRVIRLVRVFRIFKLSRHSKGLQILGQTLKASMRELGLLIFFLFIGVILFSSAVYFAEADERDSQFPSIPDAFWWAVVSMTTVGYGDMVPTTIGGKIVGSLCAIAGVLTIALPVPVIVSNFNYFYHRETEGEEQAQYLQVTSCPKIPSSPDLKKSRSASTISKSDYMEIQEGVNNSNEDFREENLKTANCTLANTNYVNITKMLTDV
Description: as §1, §2

guinea pig ileum = settings: J Pharmacol Exp Ther. 1999; cited from earlier work
Kv1.3 = Kv1.3 (Homo sapiens, UniProt P22001); assay: Two electrode voltage clamp, Xenopus oocytes, Kv1.3; format: cell-based; design: expressed in transfected cells; host or cells: Xenopus laevis oocytes (cRNA injection)
Chain of Kv1.3 (P22001 whole entry): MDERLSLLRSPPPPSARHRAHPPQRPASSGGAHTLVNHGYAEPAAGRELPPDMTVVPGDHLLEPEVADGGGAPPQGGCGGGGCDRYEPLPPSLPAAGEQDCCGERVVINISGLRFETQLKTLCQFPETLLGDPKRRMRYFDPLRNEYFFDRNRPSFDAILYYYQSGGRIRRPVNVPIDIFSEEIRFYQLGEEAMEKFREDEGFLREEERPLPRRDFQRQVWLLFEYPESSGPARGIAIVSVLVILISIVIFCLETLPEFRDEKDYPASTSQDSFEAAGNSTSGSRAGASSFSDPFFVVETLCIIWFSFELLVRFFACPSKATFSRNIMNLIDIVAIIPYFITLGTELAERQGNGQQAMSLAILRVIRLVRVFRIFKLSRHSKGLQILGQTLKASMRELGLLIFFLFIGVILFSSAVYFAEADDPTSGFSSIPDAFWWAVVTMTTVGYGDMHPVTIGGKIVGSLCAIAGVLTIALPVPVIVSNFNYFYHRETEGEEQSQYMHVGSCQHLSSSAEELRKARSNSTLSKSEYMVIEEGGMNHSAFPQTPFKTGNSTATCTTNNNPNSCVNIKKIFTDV
Description: Thereafter, MK-1 was synthesized. […] The blocking of […] by MK-1 is represented by filled circles; the blocking of Kv1.2 by MK-1 is represented by filled diamonds; and the blocking of Kv1.1 by MK-1 is represented by filled triangles.
as §1, §2

BK = molecular target: T3, BK (Mus musculus, UniProt Q08460); assay: Two electrode voltage clamp, Xenopus oocytes, BK; format: cell-based
T3 construct: expressed in transfected cells; host or cells: Xenopus laevis oocytes (cRNA injection)
T3 sequence (Q08460 whole entry): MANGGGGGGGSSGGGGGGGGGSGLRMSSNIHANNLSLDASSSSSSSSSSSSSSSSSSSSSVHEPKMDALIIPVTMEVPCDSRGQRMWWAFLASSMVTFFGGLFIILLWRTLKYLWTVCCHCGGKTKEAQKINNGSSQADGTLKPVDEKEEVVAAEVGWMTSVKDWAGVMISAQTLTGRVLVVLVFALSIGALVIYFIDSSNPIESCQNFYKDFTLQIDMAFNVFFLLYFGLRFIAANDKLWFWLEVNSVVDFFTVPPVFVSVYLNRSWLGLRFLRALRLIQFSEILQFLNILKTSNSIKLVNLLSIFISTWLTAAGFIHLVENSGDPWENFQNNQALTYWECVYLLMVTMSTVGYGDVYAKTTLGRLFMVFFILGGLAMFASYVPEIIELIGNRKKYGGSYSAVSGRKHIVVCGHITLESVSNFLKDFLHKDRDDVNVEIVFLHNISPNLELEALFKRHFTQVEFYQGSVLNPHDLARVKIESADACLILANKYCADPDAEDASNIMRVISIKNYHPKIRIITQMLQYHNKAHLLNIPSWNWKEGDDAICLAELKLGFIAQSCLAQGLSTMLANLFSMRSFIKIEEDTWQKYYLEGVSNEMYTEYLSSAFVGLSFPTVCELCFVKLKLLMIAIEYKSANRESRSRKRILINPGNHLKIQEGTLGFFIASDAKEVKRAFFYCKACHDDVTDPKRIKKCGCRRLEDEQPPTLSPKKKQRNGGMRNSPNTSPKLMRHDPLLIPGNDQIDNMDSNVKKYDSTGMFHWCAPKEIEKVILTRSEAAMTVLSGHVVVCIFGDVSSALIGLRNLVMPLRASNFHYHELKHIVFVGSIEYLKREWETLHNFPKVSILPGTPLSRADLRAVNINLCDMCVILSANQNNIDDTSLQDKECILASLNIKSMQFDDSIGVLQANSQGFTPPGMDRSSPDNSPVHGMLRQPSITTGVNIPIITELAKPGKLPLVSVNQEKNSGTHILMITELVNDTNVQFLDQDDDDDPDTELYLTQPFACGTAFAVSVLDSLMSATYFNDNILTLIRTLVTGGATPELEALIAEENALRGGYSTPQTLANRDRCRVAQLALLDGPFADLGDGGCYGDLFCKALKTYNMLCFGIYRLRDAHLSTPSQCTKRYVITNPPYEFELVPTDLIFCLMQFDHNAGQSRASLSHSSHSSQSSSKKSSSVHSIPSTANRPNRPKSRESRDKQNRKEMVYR
Description: as §1, §2

Rattus Kv1.2 = Rattus Kv1.2 (Rattus, UniProt P63142); assay: cell-based or functional assay
[20] = molecular target: Mus BK (mouse big conductance calcium-activated K channel) (Mus, UniProt Q08460); assay: cell-based or functional assay
human Kv1.3 = human Kv1.3 (Homo, UniProt P22001); assay: cell-based or functional assay
Rattus Kv1.1 = Rattus Kv1.1 (Rattus, UniProt P10499); assay: cell-based or functional assay

mokatoxin-1-phage gave a % of the phage isolated after two rounds of selection [1] of 60%, a % of the eluted phage after two rounds of panning [2] of 16.6% and a % of phage after the 2nd panning [3] of 15%.

For charybdotoxin (CTX) (peptide), the approximate IC50 [4] was 5.6 nM, the approximate IC50 [5] was 2.5 nM and the approximate IC50 [6] was 3 nM. For the same molecule, the approximate IC50 [7] was 1500 nM.

For “Dendroaspis natriuretic peptide (DNP) phage (from UniProt P28374)”, the Output (% Ligands) [8] was 0%.

Work on “Shk phage (sea anemone Stichodactyla helianthus ShK toxin on phage)” yielded a % phages, OUTPUT [9] of 20%.

With agitoxin-2 (AgTx2) (peptide) the approximate IC50 [4] was 26.8 nM, the approximate IC50 [5] was 0.004 nM and the approximate IC50 [6] was 1150 nM. The approximate IC50 [7] was 0.04 nM.

“fasciculin-2 phage (from UniProt P0C1Z0)” gave an Output (% Ligands) [8] of 0%.

With Kaliotoxin-1 phage (KTX-phage) the Kv1.3 current, whole-cell patch-clamp [10] was 35%, the Fold Enrichment [11] was 3.6 fold and the % of recovered phage, 2nd round [12] was 0%. For the same molecule, the % of recovered phage, 3rd round [12] was 58%, the Fold Enrichment [13] was 4.3 fold and 5.2 fold and the OUTPUT KTX (%) [14] was 22% and 30% and 26%. For the same molecule, the Output (% Ligands) [8] was 100%, the fold enrichment (Kv1.3 transfected against vector cells) [15] was 10 fold and the fold enrichment (Kv1.3 transfected against vector cells) [16] was 20 fold. It also gave a % of phage after the 2nd panning [3] of 40%.

mokatoxin-1 (peptide) showed an IL-2, TNF-α and IFN-γ secretion by CD3/CD28 activated human T cells (ELISA) (human Kv1.3 (Homo) [17]) of 50%, an approximate IC50 [4] of 680 nM and an approximate IC50 [5] of 3 nM. It also gave an approximate IC50 [6] of over 1000 nM, an approximate IC50 [7] of over 1000 nM and a Ki (block of channel current) (Rattus Kv1.1 (Rattus)) of over 1000 nM. For the same molecule, the Ki (block of channel current) [18] was over 1000 nM, the Ki (block of channel current) (Rattus Kv1.2 (Rattus)) was 620 nM and the Koff (block of channel current) (Rattus Kv1.2 (Rattus)) was 0.16 [s]^-1. The Kon (block of channel current) (Rattus Kv1.2 (Rattus)) was 260000 [M · s]^-1, the Ki (block of channel current) (human Kv1.3 (Homo) [19]) was 1 nM and the Koff (block of channel current) (human Kv1.3 (Homo) [19]) was 0.059 [s]^-1. For the same molecule, the Kon (block of channel current) (human Kv1.3 (Homo) [19]) was 3.6e+07 [M · s]^-1.

In the case of “sarafotoxin S6b phage (from UniProt P13208)”, the Output (% Ligands) [8] is reported as 0%.

In the case of `CC[C@H](C)[C@@H]1NC(=O)[C@@H]2CSSC[C@@H]3NC(=O)[C@H](CCCCN)NC(=O)[C@H](CCCNC(=N)N)NC(=O)[C@H](CC(N)=O)NC(=O)[C@H](CCSC)NC(=O)[C@H](CSSC[C@H](NC(=O)[C@H](CO)NC(=O)[C@@H](NC(=O)[C@H](CC(N)=O)NC(=O)[C@@H](NC(=O)[C@@H]4CCCN4C(=O)[C@@H](NC(=O)CN)C(C)C)[C@@H](C)CC)C(C)C)C(=O)N[C@@H]([C@@H](C)O)C(=O)NCC(=O)N[C@@H](CO)C(=O)N4CCC[C@H]4C(=O)N[C@@H](CCC(N)=O)C(=O)N2)NC(=O)[C@H](CCCCN)NC(=O)CNC(=O)[C@H](Cc2ccccc2)NC(=O)[C@H](CCCNC(=N)N)NC(=O)[C@H](CCSC)NC(=O)CNC(=O)[C@H](C)NC(=O)[C@H](CC(=O)O)NC(=O)[C@H](CCCCN)NC(=O)[C@H](CSSC[C@@H](C(=O)N[C@H](C(=O)N2CCC[C@H]2C(=O)N[C@@H](CCCCN)C(=O)O)[C@@H](C)O)NC(=O)[C@H](Cc2c[nH]cn2)NC3=O)NC(=O)[C@@H]2CCCN2C(=O)[C@H](CCCCN)NC1=O` [AgTX2, agitoxin-2], the IC50 (Kv1.1) is given as 0.04 nM, the IC50 (Kv1.2) is given as 26.8 nM and the ileum contractions (guinea pig ileum) is given as “contractions”. It also gave an IC50 (Kv1.3) of 0.004 nM and an IC50 (BK) of about 1150 nM.

In the case of Kaliotoxin-1 (KTX) (peptide), the approximate IC50 [4] is reported as 1.4 nM, the approximate IC50 [5] is reported as 0.5 nM and the approximate IC50 [6] is reported as 5 nM. It also gave an approximate IC50 [7] of 0.1 nM.

B1: Kaliotoxin-1 (KTX) (peptide)
peptide: GVEINVKCSGSPQCLKPCKDAGMRFGKCMNRKCHCTPK
With B1 the “Ki (block of channel current)” value (Rattus Kv1.2) was 20 nM, the “Koff (block of channel current)” value (Rattus Kv1.2) was 0.21 [s]^-1 and the “Kon (block of channel current)” value (Rattus Kv1.2) was 1.3e+07 [M · s]^-1. The “Ki (block of channel current)” value [20] was 1.6 nM, the “Koff (block of channel current)” value [20] was 0.0211 [s]^-1 and the “Kon (block of channel current)” value [20] was 21000 [M · s]^-1. For the same molecule, the “Ki (block of channel current)” value (human Kv1.3) was 0.008 nM, the “Koff (block of channel current)” value (human Kv1.3) was 0.007 [s]^-1 and the “Kon (block of channel current)” value (human Kv1.3) was 8e+08 [M · s]^-1. The “Ki (block of channel current)” value (Rattus Kv1.1) was 1.1 nM, the “Koff (block of channel current)” value (Rattus Kv1.1) was 0.009 [s]^-1 and the “Kon (block of channel current)” value (Rattus Kv1.1) was 3e+07 [M · s]^-1.

B2: agitoxin-2 (AgTx2) (peptide)
peptide: B1 peptide with E3P, K7S, S9T, L15I
modifications: ends and bridges not checked; cysteine pairing not given here
With B2 the “Ki (block of channel current)” value (Rattus Kv1.2) was 3.4 nM, the “Ki (block of channel current)” value (human Kv1.3) was 0.041 nM and the “Ki (block of channel current)” value (Rattus Kv1.1) was 0.17 nM.

B3: charybdotoxin (CTX) (peptide)
peptide: ZFTNVSCTTSKECWSVCQRLHNTSRGKCMNKKCRCYS
modifications: Z printed as first residue in Table 2
For B3, the “Ki (block of channel current)” value [20] was 5 nM and the “Ki (block of channel current)” value (Rattus Kv1.1) was over 1000 nM.
